Assay results taken from the supplement of paper PMC11865577.

Assays:
Assay in all cases: pull-down binding Z-score (relative to library population); higher = stronger binding
[1] = system: G-clamp-N3 (biotin conjugate); conditions: RNA library: Library-1 (pre-miRNA loops + repeats)
Method in brief: (§1)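 The RNA library, end-labelled with Cy5 or Cy3, was heat-folded in phosphate/NaCl/KCl buffer, and 1 μg was incubated at 25 °C for 60 min with streptavidin beads carrying 100 pmol of biotin-conjugated small molecule. Hot SDS released the bound RNA, which was then hybridised to a DNA barcode microarray for 20 h at 55.5 °C. For scoring binding, signal from beads alone was subtracted, replicate barcoded probes were averaged after discarding the highest and lowest, and each value was turned into a Z-score from the library mean and standard deviation.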

[2] = system: TO-3-N3 (biotin conjugate); conditions: RNA library: Library-2
Method in brief: as §1

[3] = system: TO-3-N3-2 (biotin conjugate); conditions: RNA library: Library-2
Method in brief: as §1

TO-N3 (biotin conjugate) = conditions: RNA library: Library-2
Method in brief: as §1

[4] = system: TO-N3-2 (biotin conjugate); conditions: RNA library: Library-2
Method in brief: as §1

ACACUGGGCUGCCCCCACUGCCCAGUGC [hsa-mir-4277]
pull-down binding Z-score [1]: -0.963
pull-down binding Z-score [2]: 0.676
pull-down binding Z-score [3]: -0.357
pull-down binding Z-score (TO-N3 (biotin conjugate)): 0.594
pull-down binding Z-score [4]: 0.413

ACACUUCCUAUAUGUAUCCACAUAUAUAUAGU [hsa-mir-568]
pull-down binding Z-score [1]: 0.00925
pull-down binding Z-score [2]: -0.562
pull-down binding Z-score [3]: -0.0673
pull-down binding Z-score (TO-N3 (biotin conjugate)): -0.69
pull-down binding Z-score [4]: -0.936

ACAGAGUGAGAUGGUCUUGUUUUGU [hsa-mir-5684]
pull-down binding Z-score [1]: 0.00683
pull-down binding Z-score [2]: -0.542
pull-down binding Z-score [3]: -0.409
pull-down binding Z-score (TO-N3 (biotin conjugate)): -0.673
pull-down binding Z-score [4]: -0.546

ACAGCAGUCUUACUGAAGGUUUCCUGGAAACCACGCACAUGCUGU [hsa-mir-744]
pull-down binding Z-score [1]: -0.613
pull-down binding Z-score [2]: -0.304
pull-down binding Z-score [3]: -0.233
pull-down binding Z-score (TO-N3 (biotin conjugate)): -0.165
pull-down binding Z-score [4]: -0.5

ACAGCCAGUGCUCUCGUCUCCCCUCUGGCUGC [hsa-mir-192]
pull-down binding Z-score [1]: 0.589
pull-down binding Z-score [2]: 0.839
pull-down binding Z-score [3]: 0.236
pull-down binding Z-score (TO-N3 (biotin conjugate)): 0.925
pull-down binding Z-score [4]: 0.949

ACAGCGCCACGGAAGAGGACGCA [hsa-mir-941-4_941-5_941-2_941-3_941-1]
pull-down binding Z-score [1]: -0.758
pull-down binding Z-score [2]: 0.0968
pull-down binding Z-score [3]: -0.211
pull-down binding Z-score (TO-N3 (biotin conjugate)): 0.495
pull-down binding Z-score [4]: 0.874

ACAGGUAGUGGCCACAGUGAGAAAGCUGGCCUGUCCUUCUGC [hsa-mir-4314]
pull-down binding Z-score [1]: -0.00957
pull-down binding Z-score [2]: -0.00864
pull-down binding Z-score [3]: 0.0324
pull-down binding Z-score (TO-N3 (biotin conjugate)): 0.245
pull-down binding Z-score [4]: 0.681

ACAGUGGACUUGGUGACGCUGU [hsa-mir-675]
pull-down binding Z-score [1]: 1.67
pull-down binding Z-score [2]: -0.46
pull-down binding Z-score [3]: -0.252
pull-down binding Z-score (TO-N3 (biotin conjugate)): -0.456
pull-down binding Z-score [4]: -0.259

ACAGUGGCCACAUCUCCAC [hsa-mir-1184-3_1184-2_1184-1]
pull-down binding Z-score [1]: -1.28
pull-down binding Z-score [2]: 1.11
pull-down binding Z-score [3]: 0.472
pull-down binding Z-score (TO-N3 (biotin conjugate)): 1.17
pull-down binding Z-score [4]: 0.582

ACAGUUUGAGGGUCUAUGAUACCACCCGGUACAGGAGAUAACUGU [hsa-let-7g]
pull-down binding Z-score [1]: 0.817
pull-down binding Z-score [2]: -0.508
pull-down binding Z-score [3]: -0.136
pull-down binding Z-score (TO-N3 (biotin conjugate)): -0.0397
pull-down binding Z-score [4]: 0.988

ACAUGAAAAUAAAAUGUAAAUUAUUUUAUUUCUAUCA [hsa-mir-3671]
pull-down binding Z-score [1]: -0.346
pull-down binding Z-score [2]: 0.665
pull-down binding Z-score [3]: 0.294
pull-down binding Z-score (TO-N3 (biotin conjugate)): 0.652
pull-down binding Z-score [4]: -0.163

ACAUGCAGUAUUUGG [hsa-mir-1302-8]
pull-down binding Z-score [1]: 0.976
pull-down binding Z-score [2]: -0.326
pull-down binding Z-score [3]: -0.047
pull-down binding Z-score (TO-N3 (biotin conjugate)): -0.242
pull-down binding Z-score [4]: -0.0326

ACAUUUGCAACCUGUGAAGAUGCAAAACUUUAAGUGU [hsa-mir-2053]
pull-down binding Z-score [1]: -0.673
pull-down binding Z-score [2]: -0.699
pull-down binding Z-score [3]: -0.262
pull-down binding Z-score (TO-N3 (biotin conjugate)): -0.853
pull-down binding Z-score [4]: -0.701

ACCAAAAAUGAUAUGGGU [hsa-mir-7977]
pull-down binding Z-score [1]: 1.5
pull-down binding Z-score [2]: -0.344
pull-down binding Z-score [3]: 0.11
pull-down binding Z-score (TO-N3 (biotin conjugate)): -0.532
pull-down binding Z-score [4]: -0.381

ACCAAAACACUCAUCGCGG [hsa-mir-1260a]
pull-down binding Z-score [1]: -0.734
pull-down binding Z-score [2]: -0.138
pull-down binding Z-score [3]: 0.105
pull-down binding Z-score (TO-N3 (biotin conjugate)): -0.188
pull-down binding Z-score [4]: -0.00378

ACCACCCAGGCCUUAUGGCUUCAUA [hsa-mir-7974]
pull-down binding Z-score [1]: -1.68
pull-down binding Z-score [2]: -0.102
pull-down binding Z-score [3]: -0.0756
pull-down binding Z-score (TO-N3 (biotin conjugate)): 0.233
pull-down binding Z-score [4]: 0.0927

ACCACUGUGAAGACAGUAAAAUGUACAGUGGU [hsa-mir-597]
pull-down binding Z-score [1]: 0.0112
pull-down binding Z-score [2]: -0.324
pull-down binding Z-score [3]: -0.0901
pull-down binding Z-score (TO-N3 (biotin conjugate)): -0.598
pull-down binding Z-score [4]: -1.1

ACCAUAGUCAUAAGUUAGGAGAUGUUAGAGCUGUGAGU [hsa-mir-4286]
pull-down binding Z-score [1]: 0.233
pull-down binding Z-score [2]: -0.464
pull-down binding Z-score [3]: 0.296
pull-down binding Z-score (TO-N3 (biotin conjugate)): -0.108
pull-down binding Z-score [4]: 0.807

ACCAUAUCUAAGCUAAUGUGGUGGU [hsa-mir-876]
pull-down binding Z-score [1]: 0.651
pull-down binding Z-score [2]: -0.157
pull-down binding Z-score [3]: 0.00992
pull-down binding Z-score (TO-N3 (biotin conjugate)): -0.139
pull-down binding Z-score [4]: -0.259

ACCCAGGACUCUUUCAUGACCA [hsa-mir-665]
pull-down binding Z-score [1]: -0.54
pull-down binding Z-score [2]: -0.0474
pull-down binding Z-score [3]: 0.144
pull-down binding Z-score (TO-N3 (biotin conjugate)): 0.101
pull-down binding Z-score [4]: 0.384

ACCCGGGUGGUGGAGGUUGCAGUGAGCCAAGAUUGCGCCACUGCACUCCAGCCUGGGC [hsa-mir-1273a]
pull-down binding Z-score [1]: -0.139
pull-down binding Z-score [2]: 1.06
pull-down binding Z-score [3]: 0.442
pull-down binding Z-score (TO-N3 (biotin conjugate)): 1.94
pull-down binding Z-score [4]: 1.66

ACCCUGCAGCCCCAGCUGGAGGAUGAGGAGAUGCUGGGCUUGGGU [hsa-mir-4313]
pull-down binding Z-score [1]: 1.16
pull-down binding Z-score [2]: 0.794
pull-down binding Z-score [3]: 1.45
pull-down binding Z-score (TO-N3 (biotin conjugate)): 1.73
pull-down binding Z-score [4]: 2.93

ACCUAACACACUGCCUUUUAUGUGGUAGGU [hsa-mir-5094]
pull-down binding Z-score [1]: -1.19
pull-down binding Z-score [2]: -0.678
pull-down binding Z-score [3]: -0.66
pull-down binding Z-score (TO-N3 (biotin conjugate)): -1.02
pull-down binding Z-score [4]: -1.14

ACCUCCUGGCUUUUCCUCUGCAGCAUGGCUCGGACCUAGUGCAAUGUUUAAGCU [hsa-mir-6826]
pull-down binding Z-score [1]: -0.435
pull-down binding Z-score [2]: 0.104
pull-down binding Z-score [3]: 0.506
pull-down binding Z-score (TO-N3 (biotin conjugate)): 0.659
pull-down binding Z-score [4]: 0.769

ACCUGUGUGUGCCCAAGUGUUUCUAGCAAACACAGGG [hsa-mir-3649]
pull-down binding Z-score [1]: 0.215
pull-down binding Z-score [2]: 0.76
pull-down binding Z-score [3]: 0.425
pull-down binding Z-score (TO-N3 (biotin conjugate)): 0.757
pull-down binding Z-score [4]: 0.193

ACCUUCCAAGGCUCAGAAGGU [hsa-mir-4650-1_4650-2]
pull-down binding Z-score [1]: -0.155
pull-down binding Z-score [2]: -0.702
pull-down binding Z-score [3]: -0.432
pull-down binding Z-score (TO-N3 (biotin conjugate)): -0.702
pull-down binding Z-score [4]: -0.0713

ACGAGAGUGAGUAGCAGGUCUC [hsa-mir-128-2]
pull-down binding Z-score [1]: 2.31
pull-down binding Z-score [2]: -0.117
pull-down binding Z-score [3]: 0.361
pull-down binding Z-score (TO-N3 (biotin conjugate)): 0.627
pull-down binding Z-score [4]: 1.51

ACGAUAUAGGUAUGUAUGUAUGUAUGUAUAAAAGCAGGGCAGUAUAUAUAUCGU [hsa-mir-4536-2]
pull-down binding Z-score [1]: 1.53
pull-down binding Z-score [2]: 0.847
pull-down binding Z-score [3]: 0.723
pull-down binding Z-score (TO-N3 (biotin conjugate)): 0.862
pull-down binding Z-score [4]: 0.482

ACGAUAUAUAUACUGCCCUGCUUUUAUACAUACAUACAUACAUACCUAUAUCGU [hsa-mir-4536-1]
pull-down binding Z-score [1]: -0.956
pull-down binding Z-score [2]: -0.603
pull-down binding Z-score [3]: -0.00614
pull-down binding Z-score (TO-N3 (biotin conjugate)): -0.734
pull-down binding Z-score [4]: -0.809

ACGCGCUGUGACACUUCAAACUCGU [hsa-mir-126]
pull-down binding Z-score [1]: -0.904
pull-down binding Z-score [2]: -0.0932
pull-down binding Z-score [3]: -0.171
pull-down binding Z-score (TO-N3 (biotin conjugate)): 0.062
pull-down binding Z-score [4]: 0.424

ACGUCCAGUGGUGCAGAGGUAAUGGACGU [hsa-mir-1306]
pull-down binding Z-score [1]: 2.13
pull-down binding Z-score [2]: 0.0986
pull-down binding Z-score [3]: 0.227
pull-down binding Z-score (TO-N3 (biotin conjugate)): 0.283
pull-down binding Z-score [4]: 1.37

ACGUCUGGCCGCGUGCGCAUGU [hsa-mir-3175]
pull-down binding Z-score [1]: 1.55
pull-down binding Z-score [2]: -0.222
pull-down binding Z-score [3]: -0.244
pull-down binding Z-score (TO-N3 (biotin conjugate)): 0.838
pull-down binding Z-score [4]: 1.89

ACGUGACCUCCUGGGCCUG [hsa-mir-6770-1_6770-3_6770-2]
pull-down binding Z-score [1]: -0.342
pull-down binding Z-score [2]: 0.505
pull-down binding Z-score [3]: 0.131
pull-down binding Z-score (TO-N3 (biotin conjugate)): 0.829
pull-down binding Z-score [4]: 1

ACUAAUUUUUCCACUAGUUAGU [hsa-mir-4424]
pull-down binding Z-score [1]: -0.61
pull-down binding Z-score [2]: 0.228
pull-down binding Z-score [3]: -0.199
pull-down binding Z-score (TO-N3 (biotin conjugate)): -0.137
pull-down binding Z-score [4]: -1.16

ACUACUAUAGGCCGCUGGGAAGCAGU [hsa-mir-130b]
pull-down binding Z-score [1]: 0.987
pull-down binding Z-score [2]: 1.04
pull-down binding Z-score [3]: 0.542
pull-down binding Z-score (TO-N3 (biotin conjugate)): 1.13
pull-down binding Z-score [4]: 0.667
